The results in this text go back to the supplement of paper PMC9112550, “Optimization of the antimicrobial peptide Bac7 by deep mutational scanning” (BMC Biology, 2022).

This series deals with Escherichia coli TOP10. In words: shrunken log2 fold change of peptide-encoding DNA abundance (4.5 h post-induction vs induction); higher = less antimicrobial activity (less host growth inhibition). The settings on record: time post-induction: 4.5 h; library: site-saturation at positions 5, 18, 19, 20.
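Further: peptides expressed intracellularly from a pBAD plasmid library in pooled LB shake-flask culture, induced with 0.3% L-arabinose, DNA abundance read by NGS, three biological replicates, DESeq2 with apeglm shrinkage.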

In the case of RRIRCRPPRLPRPRPRPLGDPRP, the “shrunken log2 fold change” value is 1.87.

As to RRIRDRPPRLPRPRPRPIRKPRP, the “shrunken log2 fold change” value was 0.0201.

As for RRIRERPPRLPRPRPRPGNPPRP, the “shrunken log2 fold change” value turned out to be 0.00298.

For RRIRMRPPRLPRPRPRPPQDPRP, the “shrunken log2 fold change” value worked out at 1.24.

In the case of RRIRVRPPRLPRPRPRPFMYPRP, the “shrunken log2 fold change” value was -0.642.

For the sequence RRIRARPPRLPRPRPRPGTVPRP, the “shrunken log2 fold change” value worked out at 0.336.

As to RRIRFRPPRLPRPRPRPHFVPRP, the “shrunken log2 fold change” value is -0.176.

With RRIRVRPPRLPRPRPRPSHYPRP, the “shrunken log2 fold change” value is -0.68.

With RRIRMRPPRLPRPRPRPNEIPRP, the “shrunken log2 fold change” value is 0.0871.

As to RRIRMRPPRLPRPRPRPGKRPRP, the “shrunken log2 fold change” value turned out to be 0.078.

For the sequence RRIRARPPRLPRPRPRPERLPRP, the “shrunken log2 fold change” value stood at 0.23.

In the case of RRIRMRPPRLPRPRPRPMDVPRP, the “shrunken log2 fold change” value is -0.0209.

On to RRIRWRPPRLPRPRPRPLYKPRP, for which the “shrunken log2 fold change” value is -0.849.

On to RRIRFRPPRLPRPRPRPEMTPRP, for which the “shrunken log2 fold change” value is -0.328.

For the sequence RRIRKRPPRLPRPRPRPQKTPRP, the “shrunken log2 fold change” value amounted to 0.167.

Regarding RRIRIRPPRLPRPRPRPEDKPRP, the “shrunken log2 fold change” value is -0.401.

In the case of RRIRWRPPRLPRPRPRPITCPRP, the “shrunken log2 fold change” value was -0.0627.

As to RRIRKRPPRLPRPRPRPCMLPRP, the “shrunken log2 fold change” value is -0.245.

Turning to RRIRFRPPRLPRPRPRPREPPRP, the “shrunken log2 fold change” value is 0.208.

Regarding RRIRYRPPRLPRPRPRPDIRPRP, the “shrunken log2 fold change” value was -0.00867.

On to RRIRLRPPRLPRPRPRPYFYPRP, for which the “shrunken log2 fold change” value is -0.942.

For RRIRCRPPRLPRPRPRPTMHPRP, the “shrunken log2 fold change” value was -0.112.

As to RRIRQRPPRLPRPRPRPEGLPRP, the “shrunken log2 fold change” value was -0.0407.

In the case of RRIRTRPPRLPRPRPRPTYMPRP, the “shrunken log2 fold change” value was -0.32.

Consider RRIRARPPRLPRPRPRPMSHPRP, for which the “shrunken log2 fold change” value was 0.148.

Turning to RRIRHRPPRLPRPRPRPFSTPRP, the “shrunken log2 fold change” value was -0.304.

In the case of RRIRIRPPRLPRPRPRPGSRPRP, the “shrunken log2 fold change” value is -0.0379.

RRIRQRPPRLPRPRPRPNSAPRP: the “shrunken log2 fold change” value was -0.173.

For the sequence RRIRFRPPRLPRPRPRPHFKPRP, the “shrunken log2 fold change” value is -0.599.

As for RRIRYRPPRLPRPRPRPTFNPRP, the “shrunken log2 fold change” value is -0.73.

Regarding RRIRRRPPRLPRPRPRPMGWPRP, the “shrunken log2 fold change” value came to 0.637.

For RRIRHRPPRLPRPRPRPSEQPRP, the “shrunken log2 fold change” value was -0.178.

As to RRIRHRPPRLPRPRPRPEDRPRP, the “shrunken log2 fold change” value was -0.0767.

For RRIRGRPPRLPRPRPRPMKIPRP, the “shrunken log2 fold change” value came to 0.533.

For RRIRQRPPRLPRPRPRPPHMPRP, the “shrunken log2 fold change” value is 0.287.

As to RRIRFRPPRLPRPRPRPESTPRP, the “shrunken log2 fold change” value is -0.00608.

With RRIRWRPPRLPRPRPRPHCFPRP, the “shrunken log2 fold change” value was -0.0202.

Consider RRIRFRPPRLPRPRPRPRCSPRP, for which the “shrunken log2 fold change” value came out at 0.717.

Regarding RRIRERPPRLPRPRPRPSTWPRP, the “shrunken log2 fold change” value was -0.651.

Consider RRIRKRPPRLPRPRPRPPIFPRP, for which the “shrunken log2 fold change” value was determined as 0.269.

As to RRIRPRPPRLPRPRPRPTDDPRP, the “shrunken log2 fold change” value was -0.392.

In the case of RRIRQRPPRLPRPRPRPICPPRP, the “shrunken log2 fold change” value turned out to be 0.128.

For the sequence RRIRQRPPRLPRPRPRPDVLPRP, the “shrunken log2 fold change” value is 0.0137.

Take RRIRIRPPRLPRPRPRPDCVPRP: the “shrunken log2 fold change” value is -0.0493.

Take RRIRKRPPRLPRPRPRPHNRPRP: the “shrunken log2 fold change” value is -0.137.

As to RRIRNRPPRLPRPRPRPMVNPRP, the “shrunken log2 fold change” value was -0.00142.

In the case of RRIRCRPPRLPRPRPRPPKEPRP, the “shrunken log2 fold change” value was 0.203.

Regarding RRIRPRPPRLPRPRPRPPKEPRP, the “shrunken log2 fold change” value was found to be 0.506.

As to RRIRNRPPRLPRPRPRPQERPRP, the “shrunken log2 fold change” value was determined as 0.0235.

For the sequence RRIRLRPPRLPRPRPRPEWEPRP, the “shrunken log2 fold change” value is 0.0256.

For RRIRPRPPRLPRPRPRPRHYPRP, the “shrunken log2 fold change” value stood at 0.101.

Take RRIRNRPPRLPRPRPRPPKPPRP: the “shrunken log2 fold change” value was 0.145.

For the sequence RRIRARPPRLPRPRPRPSEGPRP, the “shrunken log2 fold change” value was -0.00533.

Turning to RRIRVRPPRLPRPRPRPSRIPRP, the “shrunken log2 fold change” value was determined as 0.0876.

RRIRWRPPRLPRPRPRPSPQPRP: the “shrunken log2 fold change” value is 0.266.

On to RRIRSRPPRLPRPRPRPQRPPRP, for which the “shrunken log2 fold change” value stood at 0.0966.

For RRIRDRPPRLPRPRPRPVKTPRP, the “shrunken log2 fold change” value was found to be 0.0145.

For the sequence RRIRQRPPRLPRPRPRPDYHPRP, the “shrunken log2 fold change” value was -0.269.

RRIRERPPRLPRPRPRPWYYPRP: the “shrunken log2 fold change” value is 0.0432.

As to RRIRFRPPRLPRPRPRPFIWPRP, the “shrunken log2 fold change” value was -0.312.

For the sequence RRIRVRPPRLPRPRPRPMWMPRP, the “shrunken log2 fold change” value was 0.109.

In the case of RRIRGRPPRLPRPRPRPDYLPRP, the “shrunken log2 fold change” value is 0.115.

Consider RRIRLRPPRLPRPRPRPNPEPRP, for which the “shrunken log2 fold change” value amounted to 0.0435.

Regarding RRIRIRPPRLPRPRPRPQFMPRP, the “shrunken log2 fold change” value is -0.831.

As for RRIRLRPPRLPRPRPRPAAYPRP, the “shrunken log2 fold change” value was -0.15.

As to RRIRRRPPRLPRPRPRPKKQPRP, the “shrunken log2 fold change” value was -0.0969.

For the sequence RRIRCRPPRLPRPRPRPLAYPRP, the “shrunken log2 fold change” value is -0.616.

In the case of RRIRGRPPRLPRPRPRPEWMPRP, the “shrunken log2 fold change” value stood at 0.933.

In the case of RRIRERPPRLPRPRPRPDYFPRP, the “shrunken log2 fold change” value is -0.249.

On to RRIRDRPPRLPRPRPRPVWEPRP, for which the “shrunken log2 fold change” value is 0.0337.

Regarding RRIRARPPRLPRPRPRPRWSPRP, the “shrunken log2 fold change” value stood at 0.53.

For RRIRPRPPRLPRPRPRPSACPRP, the “shrunken log2 fold change” value is 0.0137.

Consider RRIRVRPPRLPRPRPRPPGHPRP, for which the “shrunken log2 fold change” value was 0.246.

Regarding RRIRVRPPRLPRPRPRPFCNPRP, the “shrunken log2 fold change” value was 0.0823.

For RRIRSRPPRLPRPRPRPIGYPRP, the “shrunken log2 fold change” value stood at 0.0746.

For RRIRTRPPRLPRPRPRPASVPRP, the “shrunken log2 fold change” value stood at 0.00118.

For the sequence RRIRWRPPRLPRPRPRPCPDPRP, the “shrunken log2 fold change” value came out at 0.111.

For RRIRMRPPRLPRPRPRPAYHPRP, the “shrunken log2 fold change” value was -0.157.

For RRIRYRPPRLPRPRPRPQDRPRP, the “shrunken log2 fold change” value was -0.00674.

Turning to RRIRWRPPRLPRPRPRPKCYPRP, the “shrunken log2 fold change” value was -0.0376.

Consider RRIRPRPPRLPRPRPRPIYEPRP, for which the “shrunken log2 fold change” value is -0.0945.

In the case of RRIRQRPPRLPRPRPRPDPNPRP, the “shrunken log2 fold change” value is -0.187.

For the sequence RRIRSRPPRLPRPRPRPVYNPRP, the “shrunken log2 fold change” value is -0.974.

As to RRIRSRPPRLPRPRPRPIDCPRP, the “shrunken log2 fold change” value is -1.27.

Take RRIRFRPPRLPRPRPRPCNLPRP: the “shrunken log2 fold change” value was -0.264.

For RRIRFRPPRLPRPRPRPCFDPRP, the “shrunken log2 fold change” value was -0.121.

On to RRIRCRPPRLPRPRPRPKLNPRP, for which the “shrunken log2 fold change” value is -0.265.

Regarding RRIRNRPPRLPRPRPRPGFAPRP, the “shrunken log2 fold change” value came to 0.444.

Turning to RRIRHRPPRLPRPRPRPSFPPRP, the “shrunken log2 fold change” value is -0.207.

In the case of RRIRMRPPRLPRPRPRPPCHPRP, the “shrunken log2 fold change” value is 0.186.

RRIRDRPPRLPRPRPRPHRLPRP: the “shrunken log2 fold change” value was 0.033.
